Test results from US20220396632A1 (VERSEAU THERAPEUTICS, published 2022).
Residue numbers refer to the chain shown, from its start.

T1: Recombinant human PSGL-1(ECD)-hFc1 (R&D Systems, Cat. 3345-PS) (human, UniProt Q14242 42-305)
T1 construct: Bought; Gln42-Val295 counted on AAC50061; also called PSGL-1-Fc; PSGL-1-hFc1 chimera; not shown: human IgG1 Fc, Pro100-Lys330
T1 sequence: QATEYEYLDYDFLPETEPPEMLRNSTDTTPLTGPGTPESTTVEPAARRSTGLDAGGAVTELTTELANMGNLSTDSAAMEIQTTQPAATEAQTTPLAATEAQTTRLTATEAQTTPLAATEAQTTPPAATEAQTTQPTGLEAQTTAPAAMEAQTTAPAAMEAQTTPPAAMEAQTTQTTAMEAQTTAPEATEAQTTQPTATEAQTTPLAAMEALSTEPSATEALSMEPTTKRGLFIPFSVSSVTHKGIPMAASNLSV

T2: Biotin PSGL-1(42-62) peptide, unmodified (human, C-terminal Lys-biotin)
T2 construct: Residues 42-62 followed by GGGK-biotin; also called WT; wild-type
T2 peptide: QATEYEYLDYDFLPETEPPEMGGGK

T3: Biotin Y46,48,51(SO3) PSGL-1(42-62) peptide (human, sulfotyrosine at Y46, Y48 and Y51; C-terminal Lys-biotin)
T3 construct: also called fully sulfated N-terminal PSGL-1 peptide
T3 peptide: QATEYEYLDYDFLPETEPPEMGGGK

T4: Cynomolgus PSGL-1(ECD)-HIS (cynomolgus macaque)
T4 construct: also called Cyno PSGL1-His
T4 chain: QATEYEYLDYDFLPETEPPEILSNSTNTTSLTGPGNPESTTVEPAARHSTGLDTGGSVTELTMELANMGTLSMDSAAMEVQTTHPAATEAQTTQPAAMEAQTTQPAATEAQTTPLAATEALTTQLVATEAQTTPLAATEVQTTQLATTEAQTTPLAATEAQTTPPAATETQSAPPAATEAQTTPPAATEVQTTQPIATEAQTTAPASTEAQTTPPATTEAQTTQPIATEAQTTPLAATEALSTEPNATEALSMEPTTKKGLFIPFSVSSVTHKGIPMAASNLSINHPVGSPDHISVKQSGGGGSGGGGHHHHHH

T5: Scrambled Y46,48,51(SO3) PSGL-1(42-62) biotin peptide (sulfotyrosine at peptide positions 5, 7 and 10; C-terminal Lys-biotin)
T5 construct: also called scrambled sulfated peptide: biotin
T5 peptide: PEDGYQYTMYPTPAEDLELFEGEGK

T6: Biotin sY51 PSGL-1(42-62) peptide (human, sulfotyrosine at Y51; C-terminal Lys-biotin)
T6 construct: also called Y51(SO3) PSGL-1(42-62)
T6 peptide: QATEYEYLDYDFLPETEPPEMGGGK

T7: Scrambled Y42,52,63(SO3) PSGL-1(42-62) biotin peptide (sulfotyrosine at peptide positions 1, 11 and 22; C-terminal Lys-biotin)
T7 peptide: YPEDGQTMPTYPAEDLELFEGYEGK

B1: 9F9 (antibody, V domains shown)
VH: EVQLVETGGGLVQPKGSLKLSCAASGFTFNTNAMNWVRQAPGKGLEWVARIRSKSNNYATYYADSVKDRFTISRDDTQSMIYLQMNNLKTEDTGMYYCVRGGSYWYFDVWGAGTTVTVSS
VL: DVLMTQTPLSLPVSLGDQASISCRSSQSIVNSNGNTYLEWYLQKPGQSPKLLIYKVSNRFSGVPDRFSGSGSGTDFTLKISRVEAEDLGVYYCFQGSHVPWTFGGGTKLEIK
notes: Control anti-PSGL-1 mAb, recombinant; only variable domains given; also called 9F6
B2: 43B6 (antibody, V domains shown)
VH: EVQLQQSGPDLVKPGALVKISCKASGYSFTAYYIHWVKQSHGKSLEWIGRVNPNTGGTSYNPKFKGKAILNVDKSSSTAYMELRSLTSEDSAVYYCARSGSPYYRYDDWGQGTTLTVSS
VL: ENVLTQSPAIMSASPGEKVTMTCRASSTVNSTYLHWFQQKSGASPKLWIYGSSNLASGVPARFSGSGSGTSYSLTISSVEAEDAATYYCQQYSGYPLTFGAGTTLELK
notes: Control anti-PSGL-1 mAb, recombinant; only variable domains given; also called 43B3
B3: 10F01 (antibody, IgG4, V domains shown)
VH: EVQLVQSGGGLVQPGGSLRLSCAASGFTFSSYAMSWVRQAPGKGLEWVSALRGGDGGTYHADSVKGRFTISGDSSKNTLYLQMNSLRAEDTAVYYCARRMVGAAYAFDIWGQGTMVTVSS
VL: LPVLTQPHSVSESPGKTVTISCTRSSGSIADNFVQWYRQRPGSAPTTVIYEGDQRPSGVPGRFSGSIDSSSNSASLTISGLQTDDEADYYCQSFDSYNRRTHVVFGGGTKLTVL
B4: 03D07 (antibody, IgG4, V domains shown)
VH: EVKLLESGGGLVQPGGSLRLSCAASGFTFSSYALSWVRQAPGKGLEWVSAISGSGGNTYYADSVKGRFTISRDNSKNTLYLQMNSLRAEDTAVYYCAKVVGATNYWGQGTLVTVSS
VL: DIVMTQTPLSLPVTLGQPASISCRSSQSLVYSDGHTYLSWFHQRPGQSPRRLIYKVSIRDSGVPDRFSGSGSGTDFTLKISRVEAEDVGVYYCMQRLQIPLTFGGGTKVEIK
B5: 05D01 (antibody, V domains shown)
VH: QVTLRESGGALVQPGGSLRLSCAASGFPLRSNAMTWVRQAPGKGLEWVSDIRGNGASTYYADSVKGRFTISRDDSNNILFLQMNSLRAEDTAVYYCVGHGSSSYWGQGTLVTVSS
VL: DVVMTQSPLSLPVTLGQPASISCRSSQSLVYRDGNIYLNWFQQRPGQSPRRLIYKVSNRDSGVPDRFSGSGSGTDFTLKISRVEAEDVGVYYCMQLTHWPPGFAQGTKLEIK
B6: 16E17 (antibody, V domains shown)
VH: QIQLVQSGPELKKPGETVKISCKASGYAFTTYGMSWVKQAPGKGLKWMGWINTYSGVPKYADDFKGRFAFSLETSASTAYLHINNLKNEDTATYFCGRHYYGSSYFDYWGQGTTLTVSS
VL: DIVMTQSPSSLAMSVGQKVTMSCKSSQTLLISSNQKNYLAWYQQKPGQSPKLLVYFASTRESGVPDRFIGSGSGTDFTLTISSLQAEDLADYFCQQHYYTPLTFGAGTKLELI
notes: From mouse immunisation; only variable domains given
B7: 19N05 (antibody, V domains shown)
VH: B6 VH with A28T, K59T, Y60F, H82Q, Y94F, G97A, H99N, S103N, S104H
VL: DVQITQSPSYLAASPGETISINCRASNNINKYLAWYQEKPGKTNKLLIYSGSTLQSGIPSRFSGSGSGTDFTLTISSLEPEDFAMYHCQQHNYYPLTFGAGTKLELK
notes: as for B6
B8: 19L04 (antibody, IgG4, V domains shown)
VH: B6 VH with A28T, K59T, H82Q, N88I, G97A, S104H
VL: DIMMTQSPSSLAMSVGQKVTLRCKSSQSLLNSSNQKNYLAWYQQKPGQSPKLLVYFASTRESGVPVRFIGSGSGTDFTLTISSMQAEDLADYFCQQHYFSPLTFGAGTKLELK
notes: as for B6
B9: 20I15 (antibody, V domains shown)
VH: EVKLVESGGGLVQPGGSLSLSCAASGFTFTDYYMSWVRQPPGKALEWLGFIRNKANGYTTEYSASVKGRFTISRDNSQSILYLQMNALRAEDSATYYCARTYLRRGYFDVWGTGTTVTVSS
VL: DIVLTQSPASLAVSLGQRATISCRASKSVSTSGYSYMHWFQQKPGQPPKLLIYLASNLESGVPARFSGSGSGTDFTLNIHPVEEEDAATYYCQHSRELPLTFGAGTKLELK
notes: From mouse immunisation; only variable domains given; also called 20115
B10: 18K07 (antibody, V domains shown)
VH: QIQLVQSGPELKKPGETVKISCEASGYTFTTYGMNWVKQAPGKGLKWMGWINTYSGVPTYADDFQGRFAFSVETSATTAYLQINNLKNEDAATYFCARSDDTYYGFAYWGQGTLVTVSA
VL: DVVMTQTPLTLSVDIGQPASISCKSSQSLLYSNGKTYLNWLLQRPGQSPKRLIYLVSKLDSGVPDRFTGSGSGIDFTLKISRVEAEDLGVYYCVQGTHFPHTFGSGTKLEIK
notes: as for B6

Molecular target: T1, Recombinant human PSGL-1(ECD)-hFc1 (R&D …)
Test: ELISA, plate-bound target

| Binder | EC50 |
| --- | --- |
| B1 | 0.06 nM |
| B2 | 0.05 nM |

Molecular target: T2, Biotin PSGL-1(42-62) peptide, unmodified
Test: ELISA, plate-bound target

| Binder | EC50 |
| --- | --- |
| B1 | 0.04 nM |
| B2 | 0.03 nM |

Molecular target: T3, Biotin Y46,48,51(SO3) PSGL-1(42-62) …
Test: ELISA, plate-bound target

| Binder | EC50 |
| --- | --- |
| B1 | 0.05 nM |
| B2 | 0.04 nM |

Molecular target: T8, Cynomolgus PSGL-1(ECD)-hFc1 (cynomolgus macaque)
T8 construct: also called Cyno PSGL1-Fc; Cyno PSGL-1(ECD)-Fc
Test: ELISA, 20 nM mAb on plate cyno PSGL-1(ECD)-Fc
Outline: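 Single-point (20 nM) or full-curve (0.003–200 nM) antibody binding measured against plate-immobilized recombinant cyno PSGL-1(ECD). Plates were coated overnight at 4 °C at 3 µg/mL in PBS pH 7.4, and antibody incubated 45 min at 37 °C. Detection was by TMB absorbance at 450 nm, with duplicate mean minus background.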

T8 sequence (chain, as listed by the source limits assumed): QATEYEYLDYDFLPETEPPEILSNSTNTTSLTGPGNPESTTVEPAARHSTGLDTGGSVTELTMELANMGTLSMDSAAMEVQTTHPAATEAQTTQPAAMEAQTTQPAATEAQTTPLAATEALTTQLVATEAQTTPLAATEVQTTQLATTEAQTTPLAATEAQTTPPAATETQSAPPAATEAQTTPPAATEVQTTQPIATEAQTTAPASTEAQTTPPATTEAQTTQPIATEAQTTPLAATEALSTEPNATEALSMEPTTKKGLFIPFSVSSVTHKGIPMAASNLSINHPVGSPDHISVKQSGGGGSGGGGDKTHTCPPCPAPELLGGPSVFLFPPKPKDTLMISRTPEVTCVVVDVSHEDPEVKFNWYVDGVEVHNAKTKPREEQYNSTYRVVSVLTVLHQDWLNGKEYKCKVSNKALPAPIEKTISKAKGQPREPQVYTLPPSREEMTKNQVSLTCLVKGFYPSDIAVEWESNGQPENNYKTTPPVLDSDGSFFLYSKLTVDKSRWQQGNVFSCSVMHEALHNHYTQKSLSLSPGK

| Binder | A450nm |
| --- | --- |
| B3 | 1.22 A450 nm |
| B4 | 0.74 A450 nm |
| B5 | 1.38 A450 nm |

Molecular target: T1, Recombinant human PSGL-1(ECD)-hFc1 (R&D …)
Test: blocking ELISA vs P-selectin-Fc
Method: (§1) A typical selectin blocking ELISA assay involved coating high binding half-well plates (Corning, Cat. #3690) with 2.5 ug/mL/25 ul per well of recombinant PSGL-1-Fc protein (R&D Systems, Cat #3345-PS) in PBS, pH 7.4, overnight at 4° C. […] Antibody (test and controls) was serially diluted (25 ul/well) in duplicate in assay buffer (3% BSA in wash buffer) into appropriate wells and the plate incubated for 45 min at 37° C. […] The plate was washed ×3 and HRP-conjugated streptavidin was added in assay buffer [25 ul per well; (Jackson Immunoresearch, Cat. #016-030-084)] and the plate incubated for 45 min at 37° C. […] For each antibody, an IC50 value was determined from sigmoidal fitted titration curves.

| Binder | % max Block | IC50 |
| --- | --- | --- |
| B3 | 100% | 4 nM |
| B4 | 100% | 5 nM |
| B6 | 0% |  |
| B7 | 0% |  |
| B8 | 0% |  |
| B9 | 52% | 100 nM |
| B1 | 100% | 10 nM |
| B10 | 0% |  |
| B2 | 100% | 8 nM |

Molecular target: T1, Recombinant human PSGL-1(ECD)-hFc1 (R&D …)
Test: blocking ELISA vs L-selectin-Fc
Method: as §1

| Binder | % max Block | IC50 |
| --- | --- | --- |
| B3 | 100% | 6 nM |
| B4 | 100% | 6 nM |
| B6 | 0% |  |
| B7 | 0% |  |
| B8 | 0% |  |
| B9 | 65% | 20 nM |
| B1 | 100% | 10 nM |
| B10 | 0% |  |
| B2 | 100% | 6 nM |

Molecular target: T4, Cynomolgus PSGL-1(ECD)-HIS
Test: ELISA, plate cyno PSGL-1(ECD)-HIS
Method: Antibody binding to plate-immobilized cyno PSGL-1(ECD) was determined either at one concentration (20 nM) or by generating full antibody binding curves (0.003-200 nM). A typical ELISA was performed by overnight coating at 4° C. with 3 ug/mL/25 ul per well of recombinant cyno PSGL-1(ECD) protein in PBS, pH 7.4, in high binding half-well plates (Corning Cat. #3690). […] Anti-PSGL-1 IgG in assay buffer (blocking buffer containing 0.05% tween 20) was added into test and control wells (20 nM/25 ul/well) and the plate incubated for 45 min at 37° C. […] The plate was incubated for 45 min at 37° C., and mAb bound to plate-immobilized target determined at A450 nm using HRP substrate (3,3′,5,5′-tetramethylbenzidine (TMB)). For each antibody, duplicate values were averaged and assay background subtracted.

| Binder | EC50 |
| --- | --- |
| B6 | 0.53 nM |
| B7 | 0.95 nM |
| B8 | 1.11 nM |
| B10 | 8.49 nM |

Molecular target: T5, Scrambled Y46,48,51(SO3) PSGL-1(42-62) …
Test: ELISA, immobilized biotin peptide
Outline: (§2)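 In this ELISA, half-well high binding plates (Corning Cat. #3690) received 3 ug/mL/25 ul per well of biotin-tagged PSGL-1 peptides covering residues 42 to 62, diluted in PBS, pH 7.4, and coated overnight at 4° C. Duplicate readings for each antibody were averaged and the average assay background was subtracted. PSGL-1 protein or peptide was the positive control.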

| Binder | binding result | EC50 |
| --- | --- | --- |
| B9 | no binding |  |
| B5 |  | 1.33 nM |

Molecular target: T2, Biotin PSGL-1(42-62) peptide, unmodified
Test: ELISA, immobilized biotin peptide
Outline: as §2

| Binder | EC50 | A450nm, 20 nM mAb |
| --- | --- | --- |
| B4 | > 500 nM |  |
| B9 | ~300 nM |  |
| B5 |  | 1.33 A450nm |

Molecular target: T6, Biotin sY51 PSGL-1(42-62) peptide
Test: ELISA, immobilized biotin peptide
Outline: as §2

| Binder | EC50 |
| --- | --- |
| B9 | 178 nM |

Molecular target: T3, Biotin Y46,48,51(SO3) PSGL-1(42-62) …
Test: ELISA, immobilized biotin peptide
Outline: as §2

| Binder | A450nm, 20 nM mAb | EC50 |
| --- | --- | --- |
| B3 | 2.39 A450nm |  |
| B4 | 2.73 A450nm |  |
| B9 |  | 0.485 nM |
| B5 | 2.85 A450nm |  |

Molecular target: T7, Scrambled Y42,52,63(SO3) PSGL-1(42-62) …
Test: ELISA, immobilized biotin peptide
Outline: as §2

| Binder | binding result | A450nm, 20 nM mAb |
| --- | --- | --- |
| B4 | no binding (tested: 20 nM) |  |
| B5 | no binding (tested: 20 nM) | 0.01 A450nm |
